IntAct's records for PubMed 21422170

B1: Natural cytotoxicity triggering receptor 3 (Homo sapiens), O14931 (parent)
chain: MAWMLLLILIMVHPGSCALWVSQPPEIRTLEGSSAFLPCSFNASQGRLAIGSVTWFRDEVVPGKEVRNGTPEFRGRLAPLASSRFLHDHQAELHIRDVRGHDASIYVCRVEVLGLGVGTGNGTRLVVEKEHPQLGAGTVLLLRAGFYAVSFLSVAVGSTVYYQGKCLTWKGPRRQLPAVVPAPLPPPCGSSAHLLPPVPGG
partner: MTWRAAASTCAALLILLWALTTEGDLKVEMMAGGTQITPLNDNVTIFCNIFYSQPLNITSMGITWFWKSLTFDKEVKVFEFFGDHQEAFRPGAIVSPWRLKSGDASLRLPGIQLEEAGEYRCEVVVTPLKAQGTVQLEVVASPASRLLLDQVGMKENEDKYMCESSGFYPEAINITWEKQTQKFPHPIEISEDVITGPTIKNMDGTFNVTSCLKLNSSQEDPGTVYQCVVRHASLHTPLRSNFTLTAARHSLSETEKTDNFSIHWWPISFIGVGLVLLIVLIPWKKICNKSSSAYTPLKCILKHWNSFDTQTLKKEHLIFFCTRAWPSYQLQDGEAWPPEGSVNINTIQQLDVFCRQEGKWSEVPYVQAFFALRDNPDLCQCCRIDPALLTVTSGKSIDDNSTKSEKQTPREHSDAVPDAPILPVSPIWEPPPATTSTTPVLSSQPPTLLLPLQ

Variants of: B1
Conditions: with nr3l1_human NCR3LG1, Q68D85

Row | Variant | effect of a mutation on the interaction
1 | S52R | disrupting interaction strength
2 | F85A;L86A | decreasing interaction strength
3 | I50A;S52A | decreasing interaction strength
